Experimental data: patent publication US20230407326A1, “INDUCIBLE PROMOTER FOR VIRAL VECTOR PRODUCTION” (ASKLEPIOS BIOPHARMACEUTICAL, INC., priority 2020, published 2023)

Columns and labels:
Assay type in all cases: cell-based, human
[1] = system: HEK293-F cells; assay: Luciferase expression from forskolin-inducible promoters in HEK293-F cells after induction with forskolin; details: 20 μM forskolin
Protocol: The forskolin-inducible promoters FORCSV-10, FOR-CMV-009, FMP-02 and FLP-01 were used to drive expression of luciferase in a PM-RQ vector in the suspension cell line HEK293-F. The tested promoters were synthesized directly upstream of the ATG of PM-RQ plasmid and the suspension cell lines were transiently transfected with the PM-RQ plasmid.
(§1) 40 ml of cells were grown in a 250 ml vented Erlenmeyer flask (Sigma-Aldrich CLS431144) at 37° C., 20% O2, 8% CO2 with agitation at 100 rpm. Cells were seeded as described in the manufacturer's instructions (300,000 cells/ml). HEK293-F were obtained from Thermofisher, R79007.
(§2) One day before transfection, the cells were counted using a haemocytometer and split to 500,000 cells/ml.
(§3) On the day of transfection, the cells are seeded to 1,000,000 cells/ml in 500 μl of appropriate medium (Freestyle 293 expression medium, 12338002) in a 24 well plate. 0.625 μg of DNA per well was then added to 10 μl of OptiMem medium (Thermofisher; 11058021) and incubated for 5 minutes at room temperature.
Concurrently, 0.625 μl of Max reagent (Thermofisher, 16447100) was made up to 10 μl by addition of OptiMem and incubated for 5 minutes at room temperature. […]
24 hours after transfection, the promoters were induced by addition of 20 μM forskolin and luciferase activity was measured 0, 3, 5 and 24 hours after induction. Luciferase activity was measured as previously described.

[2] = system: HEK293-F cells; assay: Luciferase expression from hypoxia-inducible promoters in transiently transfected HEK293-F cells under hypoxia; details: hypoxia 5% oxygen, 3, 5 and 24 hrs
Protocol: as §1, §2
as §3, with “temperature. […]” for “temperature.”
After transfection the cells were incubated for 24 hrs in normoxia conditions (20% oxygen) before being switched to a gas mix of 5% oxygen, 10% carbon dioxide and 85% nitrogen (hypoxia). […] Induction of the promoters was assessed by using luciferase activity after 3, 5 and 24 hrs in hypoxia.
Luciferase activity was measured using LARII (Dual Luciferase Reporter 1000 assay system, Promega, E1980).
Media was removed from the cells at the respective time point (0, 3, 5, 24 hrs after induction). […] 10 μl of supernatant was pipetted into white 96-well plate and luminescence measured by addition of 50 μl of LARII substrate. […]

[3] = system: Pro10 cells; assay: Rep78 expression (western blot) from new forskolin promoter designs in Pro10 cells; details: Pro10, 10 uM forskolin or DMSO, 24 hrs
Protocol: Each of the promoters were tested for their ability to induce expression of the Rep78 protein. To eliminate the expression of Rep52 the ATG start codon in Rep52 was mutated to an AGG. All constructs were synthesized by Genewiz, see sequence files for full plasmid.
Pro10 cells were cultured and transfected using lipofectamine 2000 as previously described herein above. 24 hrs after transfection 10 uM forskolin was added to the cells. Control wells were given DMSO as forskolin was dissolved in this carrier. After another 24 hrs the cells were then lysed and lysates were analyzed for Rep78 expression via western blot (previously described). The best performing promoters were the TATA-m6a, YB and pJB42 (FIG. 29). […] The rest of the promoters have some level of background which indicates leaky expression.

[4] = system: Pro10 cells; assay: Activation of FORN-pJB42 driving Rep78 by adenovirus helper functions; details: with and without adenovirus helper functions, forskolin or DMSO
Protocol: The ability for the aforementioned helper functions to induce the activity of the best performing promoter FORN-pJB42 was next assessed. Transfections were carried out as previously described. Conditions were as follows: FORN-pJB42 controlling expression of Rep78 was transfected with and without the adenovirus helper functions. In addition, the transfected cells were also treated with forskolin at […] or vehicle DMSO control. Analysis of activity was as described in the previous section. […] However, it should be noted that full activity is not obtained until both the adenovirus helper functions and 10 μM forskolin were present.

B1: FORCSV-10: forskolin-inducible promoter, 5×cAMPRE and 3×AP1(2) TFBS with SV40-MP, SEQ ID NO: 6 (nucleic acid)
DNA: TGACGTCACGATTACCATTGACGTCACGATTACCATTGACGTCACGATTACCATTGACGTCACGATTACCATTGACGTCAGCGATTAAGATGACTCAGCGATTAAGATGACTCAGCGATTAAGATGACTCAGCGATTAAGATGACTCACTAGCCCGGGCTCGAGATCTGCGATCTGCATCTCAATTAGTCAGCAACCATAGTCCCGCCCCTAACTCCGCCCATCCCGCCCCTAACTCCGCCCAGTTCCGCCCATTCTCCGCCCCATCGCTGACTAATTTTTTTTATTTATGCAGAGGCCGAGGCCGCCTCGGCCTCTGAGCTATTCCAGAAGTAGTGAGGAGGCTTTTTTGGAGGCCTAGGCTTTTGCAAA
- promoter strength relative to the other promoters [1]: strongest

B2: FMP-02: forskolin-inducible promoter, 8×AP1(1) TFBS with MinTK, SEQ ID NO: 8 (nucleic acid)
DNA: TGAGTCAGATGATGCGTAGCTAGTAGTTGAGTCAGATGATGCGTAGCTAGTAGTTGAGTCAGATGATGCGTAGCTAGTAGTTGAGTCAGATGATGCGTAGCTAGTAGTTGAGTCAGATGATGCGTAGCTAGTAGTTGAGTCAGATGATGCGTAGCTAGTAGTTGAGTCAGATGATGCGTAGCTAGTAGTTGAGTCAGTAGTCGTATGCTGATGCGCAGTTAGCGTAGCTGAGGTACCGTCGACGATATCGGATCCTTCGCATATTAAGGTGACGCGTGTGGCCTCGAACACCGAGCGACCCTGCAGCGACCCGCTTAA
- promoter strength relative to the other promoters [1]: weakest

B3: SYNP-HYP-001: synthetic hypoxia-inducible promoter, four HRE2 and a CMV minimal promoter, SEQ ID NO: 3 (nucleic acid)
DNA: CTGCACGTACTGCACGTACTGCACGTACTGCACGTATGGGTACCGTCGACGATATCGGATCCAGGTCTATATAAGCAGAGCTCGTTTAGTGAACCGTCAGATCGCCTAGATACGCCATCCACGCTGTTTTGACCTCCATAGAAGATCGCCACC
- promoter activity (luciferase) relative to the other promoters [2]: stronger

B4: FORN-pJB42: forskolin responsive enhancer element in combination with pJB42 minimal promoter, SEQ ID NO: 211 (nucleic acid)
DNA: AATAAAATATCTTTATTTTCATTACATCTGTGTGTTGGTTTTTTGTGTGCCATTGACGTCACGATTTGACGTCAACCATTGACGTCACGATTTGACGTCAACCATTGACGTCACGATTTGACGTCACGATTTGACGTCAACCATTGACTCACGATTTGACTCAACCATTGACTCACGATTTGACTCAACCATTGACTCACGATTTGACTCACGATTCTGACAAATTCAGTATAAAAGCTTGGGGCTGGGGCCGAGCACTGGGGACTTTGAGGGTGGCCAGGCCAGCGTAGGAGGCCAGCGTAGGATCCTGCTGGGAGCGGGGAACTGAGGGAAGCGACGCCGAGAAAGCAGGCGTACCACGGAGGGAGAGAAAAGCTCCGGAAGCCCAGCAGCGGCCACC
- Rep78 expression (western blot) [3]: no Rep78 expression in the absence of forskolin but strong expression on the presence
- activation of the promoter driving Rep78 [4]: activated by the presence of the helper functions, even in the absence of forskolin

B5: TATA-m6a: forskolin responsive enhancer element in combination with TATA-m6A minimal promoter, SEQ ID NO: 209 (nucleic acid)
DNA: AATAAAATATCTTTATTTTCATTACATCTGTGTGTTGGTTTTTTGTGTGCCATTGACGTCACGATTTGACGTCAACCATTGACGTCACGATTTGACGTCAACCATTGACGTCACGATTTGACGTCACGATTTGACGTCAACCATTGACTCACGATTTGACTCAACCATTGACTCACGATTTGACTCAACCATTGACTCACGATTTGACTCACGATTTATAAAAGGCAGAGCTCGTTTAGTGAACCGAAGCTTGGACTAAAGCGGACTTGTCTCGAG
- Rep78 expression (western blot) [3]: no Rep78 expression in the absence of forskolin but strong expression on the presence
